In the supplement of paper PMC10899765:

How the values were obtained:
Conditions in all cases: 20 nM; 72 h
MCF10A [1] = assay: 5+ nucleoli phenotype percent effect, hitpick validation (relative to siNT 0% and siKIF11 100%); higher = more cells with five or more nucleoli
Description: (§1)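 Primary screen hits (microRNA mimics) were re-picked and rescreened for nucleolar number in MCF10A cells (hitpick validation; percent effect relative to the siNT and siNOL11/siKIF11 controls). A secondary screen measured nucleolar rRNA biogenesis inhibition: after 72 h of transfection at 20 nM, cells were labelled 1 h with 1 mM 5-EU and nucleolar 5-EU signal was quantified, normalised to siNT (0%) and siPOLR1A (100%). Means are over n=5 (MCF10A) or n=2 (RPE-1, HeLa) biological replicates.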

MCF10A [2] = assay: 5+ nucleoli phenotype percent effect (relative to siNT 0% and siKIF11 100%); higher = more cells with five or more nucleoli
Description: (§2)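 After 72 h, cells were fixed and stained with Hoechst and anti-fibrillarin, and nucleoli per nucleus were counted with CellProfiler. Values are plate-adjusted percent effect for the one-nucleolus and 5+ nucleoli phenotypes, normalised to siNT (0%) and to the positive controls siNOL11 or siKIF11 (100%), as the mean of biological triplicates. Percent viability is the nuclei count relative to siNT.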

MCF10A [3] = assay: one-nucleolus phenotype percent effect (relative to siNT 0% and siNOL11 100%); higher = more cells with one nucleolus (ribosome biogenesis inhibition)
Description: as §2

MCF10A [4] = assay: one-nucleolus phenotype percent effect, hitpick validation (relative to siNT 0% and siNOL11 100%); higher = more cells with one nucleolus
Description: as §1

MCF10A [5] = assay: nucleolar rRNA biogenesis percent inhibition (5-EU; siNT 0%, siPOLR1A 100%); higher = stronger inhibition of nucleolar rRNA biogenesis
Description: as §1

hTERT RPE-1 = assay: as above
Description: as §1

HeLa = assay: as above
Description: as §1

MCF10A [6] = assay: percent viability (nuclei count relative to siNT); higher = more viable cells
Description: as §2

Sequence | 5+ nucleoli phenotype percent effect (MCF10A [1]) [%] | 5+ nucleoli phenotype percent effect (MCF10A [2]) [%] | one-nucleolus phenotype percent effect (MCF10A [3]) [%] | one-nucleolus phenotype percent effect (MCF10A [4]) [%] | nucleolar rRNA biogenesis percent inhibition (MCF10A [5]) [%] | nucleolar rRNA biogenesis percent inhibition (hTERT RPE-1) [%] | nucleolar rRNA biogenesis percent inhibition (HeLa) [%] | percent viability (MCF10A [6]) [%]
ACUCGGCGUGGCGUCGGUCGUG [hsa-miR-1307-3p] | -13.2 | -50.5 | 66.2 | 112 | 100 | 13.7 | 40.2 | 39.9
UGGCAGUGUCUUAGCUGGUUGU [hsa-miR-34a-5p] | 19.4 | -14.4 | 11.2 | 28.9 | 72.2 | 52.6 | 37.7 | 11.9
UGGUUCUAGACUUGCCAACUA [hsa-miR-182-3p] | -12.4 | -35.8 | 97.2 | 165 | 64.6 | 173 | 9.57 | 17.5
UAAGGCACGCGGUGAAUGCC [hsa-miR-124-3p] | 18.1 | -14.4 | 70.4 | 139 | 61.9 | 28.2 | 91.7 | 39.1
CAAUCAGCAAGUAUACUGCCCU [hsa-miR-34a-3p] | 1.68 | -43.5 | 83.5 | 127 | 70.2 | 113 | -6.79 | 25.6
UCUCUGGGCCUGUGUCUUAGGC [hsa-miR-330-5p] | 1.29 | -22.3 | 67.1 | 99.9 | 65.2 | 109 | 66.1 | 17.8
UGUCCUCUAGGGCCUGCAGUCU [hsa-miR-3909] | -15.4 | -34.2 | 93.1 | 196 | 42.9 | 66.8 | 74.5 | 25.5
UGCCUGUCUACACUUGCUGUGC [hsa-miR-214-5p] | -11.5 | -42.1 | 93.5 | 122 | -8.48 | 87.1 | 32 | 31.1
AGGUAUUGCCACCCUUUCUAGU [hsa-miR-5681b] | -3.11 | -35.5 | 90.7 | 133 | 66 |  |  | 12.7
UGUGUGGAUCCUGGAGGAGGCA [hsa-miR-3911] | -10.6 | -47 | 70.3 | 129 | 53.8 |  |  | 12.9
AAGGAGCUCACAGUCUAUUGAG [hsa-miR-28-5p] | -2.58 | -30.7 | 69.4 | 146 | 0.18 | 63.6 | 60.9 | 39
UCUGCAGGGUUUGCUUUGAG [hsa-miR-1205] | -13.7 | -53.7 | 96.8 | 166 | 15.8 |  |  | 20.5
GAGCAGGCGAGGCUGGGCUGAA [hsa-miR-4690-5p] | -12.8 | -41.1 | 70.8 | 176 | 101 |  |  | 11.1
CUGCCAAUUCCAUAGGUCACAG [hsa-miR-192-3p] | -12.3 | -40.8 | 70.5 | 137 | 67.1 | 136 | 37.7 | 62.7
AGAUCAGAAGGUGAUUGUGGCU [hsa-miR-383-5p] | -5.3 | -26.7 | 68.7 | 125 | 0.973 | 123 | 129 | 14.2
CAGGUCGUCUUGCAGGGCUUCU [hsa-miR-431-3p] | -15.2 | -53.4 | 84.4 | 182 | 83.8 | 118 | 115 | 35.3
AAGGAGAUGCUCAGGCAGAU [hsa-miR-6888-5p] | -11.7 | -54 | 86.2 | 173 | 50.6 |  |  | 31
ACUGGGCUUGGAGUCAGAAG [hsa-miR-378g] | -9.08 | -34.6 | 91.2 | 159 | 57.9 |  |  | 16.8
GGCGACAAAACGAGACCCUGUC [hsa-miR-1273c] | -8.2 | -32.6 | 106 | 205 | 31.6 |  |  | 17.4

Sequence | 5+ nucleoli phenotype percent effect (MCF10A [1]) [%] | 5+ nucleoli phenotype percent effect (MCF10A [2]) [%] | one-nucleolus phenotype percent effect (MCF10A [3]) [%] | one-nucleolus phenotype percent effect (MCF10A [4]) [%] | nucleolar rRNA biogenesis percent inhibition (MCF10A [5]) [%] | nucleolar rRNA biogenesis percent inhibition (hTERT RPE-1) [%] | nucleolar rRNA biogenesis percent inhibition (HeLa) [%] | percent viability (MCF10A [6]) [%]
AGGAGCAGUGCCGGCCAAGGCGCC [hsa-miR-6081] | -16.9 | -52.9 | 81.7 | 152 | 57.3 |  |  | 22.9
UGGCAAGGAAAGAAGAGGAUCA [hsa-miR-6809-5p] | -2.51 | -45.7 | 115 | 207 | 69.8 |  |  | 9.15
CUAGGGGGUUUGCCCUUG [hsa-miR-4278] | -14.3 | -35.5 | 67.1 | 151 | 45.6 |  |  | 13.5
AGCUUUUGGGAAUUCAGGUAGU [hsa-miR-3140-3p] | -14.2 | -25.9 | 91.3 | 159 | 6.44 | 33 | 76.4 | 17.7
CGCGCCGGGCCCGGGUU [hsa-miR-3195] | -15.6 | -31.1 | 82.1 | 196 | 51.6 |  |  | 19.4
CUCUCCCUCUUUACCCACUAG [hsa-miR-6867-3p] | 49.1 | 133 | -35 | -40.4 | 71.1 |  |  | 61.8
AGAAGGCACUAUGAGAUUUAGA [hsa-miR-605-3p] | -15.9 | -49.9 | 66.4 | 154 | 65 | -22.8 | 23.1 | 43.9
ACUGGGGAGCAGAAGGAGAACC [hsa-miR-4667-5p] | 9.27 | -15.5 | 67.8 | 107 | 81.2 |  |  | 9.07
CUCGGCGCGGGGCGCGGGCUCC [hsa-miR-1469] | -13.8 | -35.5 | 74.3 | 158 | 96.7 |  |  | 30
AAAGGAGGAAAUAGGCAGGCCA [hsa-miR-3173-3p] | -0.0263 | -35.7 | 67.7 | 84.3 | 86.5 | 159 | 25.3 | 17.5
UGGAGUCCAGGAAUCUGCAUUUU [hsa-miR-1289] | -9.57 | -51.8 | 78.3 | 130 | 68.1 |  |  | 20
GAGCAAUGUAGGUAGACUGUUU [hsa-miR-3908] | -5.96 | -34.4 | 89.1 | 166 | 7.34 |  |  | 19.8
CAAAGGUAUUUGUGGUUUUUG [hsa-miR-548m] | -10.9 | -40.8 | 68.6 | 130 | 4.11 |  |  | 39.4
AGUUUUGCAGGUUUGCAUCCAGC [hsa-miR-19b-1-5p] | -19.8 | -41.5 | 76.9 | 196 | 30.7 | -48.4 | 92.7 | 26.2
CUCUUGAGGGAAGCACUUUCUGU [hsa-miR-526b-5p] | -6.22 | -54.5 | 71.3 | 81.9 | 130 | 75.9 | 81.5 | 28.7
CCCCACCUCCUCUCUCCUCAG [hsa-miR-1224-3p] | 28.1 | 97.2 | -25.7 | -32.5 | 22.4 |  |  | 86.7
GGCUCCUCCUCUCAGGAUGUG [hsa-miR-4268] | 51.9 | 82.4 | -15.6 | -21.2 | 133 |  |  | 41.5
CUGGCGGCUGUGUCUUCACAG [hsa-miR-6770-3p] | 1.2 | -40.2 | 110 | -1.66 | -8.82 |  |  | 18.4
AGGCGGAGACUUGGGCAAUUG [hsa-miR-25-5p] | -9.31 | -48.5 | 115 | 182 | 75.3 | 45.2 | 86.7 | 29.4

Sequence | 5+ nucleoli phenotype percent effect (MCF10A [1]) [%] | 5+ nucleoli phenotype percent effect (MCF10A [2]) [%] | one-nucleolus phenotype percent effect (MCF10A [3]) [%] | one-nucleolus phenotype percent effect (MCF10A [4]) [%] | nucleolar rRNA biogenesis percent inhibition (MCF10A [5]) [%] | nucleolar rRNA biogenesis percent inhibition (hTERT RPE-1) [%] | nucleolar rRNA biogenesis percent inhibition (HeLa) [%] | percent viability (MCF10A [6]) [%]
UCUCCCUUGAGGGCACUUU [hsa-miR-4287] | 70 | 200 | -43.1 | -44.9 | 82.1 |  |  | 66
CAGCCUCUGCCCUUGGCCUCC [hsa-miR-6877-3p] | -16.2 | -44.7 | 69.1 | 153 | 114 |  |  | 28.9
UGAAGGUCUACUGUGUGCCAGG [hsa-miR-493-3p] | 4.11 | -34.3 | 73 | 126 | 69.3 | 108 | -1.09 | 28
AAGGAGCUUACAAUCUAGCUGGG [hsa-miR-708-5p] | 1.8 | -34.6 | 120 | 187 | -26.3 | 9.05 | 48.6 | 27.9
UAUGGCACUGGUAGAAUUCACU [hsa-miR-183-5p] | -0.696 | -24 | 81 | 101 | 33.5 | 204 | 21.8 | 16.2
CAUCUGGCAUCCGUCACACAGA [hsa-miR-3126-3p] | -8.87 | -5.56 | 67 | 105 | 22.1 | 50.7 | 4.46 | 9.11
AGUGUGGCUUUCUUAGAGC [hsa-miR-644a] | -13.1 | -48.4 | 93.5 | 170 | 101 |  |  | 35
AGAGCAGAAGGAUGAGAU [hsa-miR-4468] | -14.8 | -43.6 | 66.8 | 109 | 102 |  |  | 16.5
CUUAUGCAAGAUUCCCUUCUAC [hsa-miR-491-3p] | -10.1 | -51.5 | 73.6 | 118 | 63.6 | -86.4 | -3.33 | 15.5
CGGCGGGGACGGCGAUUGGUC [hsa-miR-1908-5p] | -7.82 | -47.2 | 93.7 | 128 | 90.6 | 113 | 68.5 | 40.6
GGCCAGCCACCAGGAGGGCUG [hsa-miR-3194-5p] | 4.28 | -36.9 | 81.9 | 199 | 22.9 | 50.9 | -11.3 | 18.6
ACCUUGGCUCUAGACUGCUUACU [hsa-miR-212-5p] | 91.8 | 164 | -30.9 | -36.9 | 118 | 114 | 95.9 | 27.9
UUCUCCCACUACCAGGCUCCCA [hsa-miR-4713-5p] | 43 | 95.9 | -12.1 | -22.9 | 82.4 |  |  | 32.9
AAAGGCAUAAAACCAAGACA [hsa-miR-3910] | -8.76 | -39.2 | 97 | 167 | 12.7 |  |  | 11.9
CUCUCCUCCCGGCUUC [hsa-miR-4279] | -6.3 | -34.9 | 87.9 | 188 | 26.8 |  |  | 14.1
CAAUGGCACAAACUCAUUCUUGA [hsa-miR-5197-5p] | 20.5 | -38.9 | 71 | 65.4 | 16.5 |  |  | 22.7
GUGUGUGGAAAUGCUUCUGC [hsa-miR-147a] | 9.08 | -15.3 | 95.9 | 103 | 61.8 |  |  | 18.3
UUUGGGACUGAUCUUGAUGUCU [hsa-miR-3913-5p] | 61 | 132 | -47.3 | -50.6 | 84.5 |  |  | 69.2
GUUCUCCCAACGUAAGCCCAGC [hsa-miR-629-3p] | 96.3 | 238 | -34.6 | -55.4 | 82.1 | 70.8 | 55.5 | 38.5
